Source: patent US6340783B1, “Rodent models of human amyloidoses” (University of Washington, priority 1992, dated 2002)
pKd: −log10 of the molar value. Like-named read-outs stand apart in the source and are kept apart here.

Experiments:
[1] = target: T1, BAP (1-28) (Homo sapiens, UniProt P05067); test: Solid phase binding assay, Scatchard analysis of 125I-BAP (1-28) binding to high Mr HSPG
T1 construct: residues 1-28 of BAP or residues 597-624 of BAPP; purchased Bachem Inc., Torrance, Calif; host or cells: synthetic peptide
Procedure: Nitrocellulose coated wells were incubated overnight at room temperature with 100 μl of TBS containing 1.5 μg (with 0.28 μg binding to the well) of high Mr HSPG. Wells were blocked overnight at room temperature with 200 μl of 5% non-fat dried milk. After blocking, wells were rinsed 3 times with 200 μl of TBS. Various quantities of ^125I-BAP (1-28) (specific activity=6,683 cpm/pm) diluted in 100 μl of TBS/0.05% Tween 20 was added in triplicate to wells and incubated for 2.5 hours at room temperature on an orbital shaker. At the end of the incubation period, free ^125I-BAP was removed from each well and transferred to scintillation vials for counting. In addition, each well was washed 6 times with 200 μl of TBS/0.05% Tween 20, and the wash was added to each of the same scintillation vials described above, to determine the total “free” 125I-BAP fraction for each well. Bound ^125-BAP was extracted from wells by incubation with 100 μl of 1N NaOH at room temperature for 1 hour, and quantitated by liquid scintillation counting. Recovery of ^125I-BAP as free and bound radioactivity exceeded 90%. […] Bars indicate standard error of the mean.
^125I-HSPG (specific activity=1,104 cpm/ug) isolated from EC culture media was used to determine the amount of HSPG which bound to microtiter wells. Polyvinyl microtiter wells were coated with 100 μl of nitrocellulose solution (Schleicher and Schuell) (10 cm^2 of BA85 nitrocellulose in 10 ml of methanol) and allowed to dry at room temperature for 4 hours. Wells were coated overnight at room temperature with unlabeled HSPG to give 0.12 μg or 0.28 μg of bound-HSPG per well, and blocked overnight at room temperature with 200 μl of 5% non-fat dried milk (Carnation Co., Los Angeles, Calif.). Various quantities of 125I-BAP (residues 1-28) (specific activity=6,683 cpm/pm) diluted in 100 μl of TBS/0.05% Tween 20 were added in triplicate to wells and incubated for 2.5 hours at room temperature on an orbital shaker. At the end of the incubation. period, free ^125I-BAP was then removed with 6 washes of TBS/0.05% Tween 20. Bound ^125I-BAP was extracted from wells by incubation with 100 μl of 1N NaOH at room temperature for 1 hour, and “bound” versus “free” radioactivity was quantitated by liquid scintillation counting. Recovery of ^125I-BAP as free and bound radioactivity exceeded 90%. A set of controls using 5% BSA-coated wells was also included in all experiments.
To quantitate the interaction between the high Mr HSPG and BAP (1-28), 0.12 μg or 0.28 μg of the HSPG (isolated from the culture media of ECs; see FIG. 9B, lane 1) were immobilized on nitrocellulose coated wells and incubated with increasing concentrations of ^125I-BAP.

[2] = target: T2, mutated β/A4 (1-28) (Homo sapiens, UniProt P05067, H684G/H685G/K687G); test: Affinity column with β/A4 (1-28) mutated in the putative heparin binding domain; details: histidine, histidine and lysine changed to glycine; versus normal β/A4 (1-28) column
T2 construct: residues 1-28 of BAP or residues 597-624 of BAPP
Source text: As described above, residues 12-17 of the β/A4 (-valine-histidine-histidine-glutamine-lysine-leucine-) conform to a consensus sequence for a potential heparin/heparan sulfate binding domain. This has been recently confirmed by our studies, whereby comparisons were made using column affinity chromatography. One affinity column contained β/A4 (1-28), whereas the other affinity column contained β/A4 (1-28) with three amino acid substitutions of the putative heparin binding domain (i.e. the basic amino acids histidine, histidine and lysine where changed to glycine, and therefore were now uncharged instead of basic amino acids). ^125I-HSPG bound with high affinity to normal β/A4 (1-28) affinity column, whereas a 50-60% decrease in HSPG binding to the mutated β/A4 (1-28) was observed.

[3] = target: T3, Beta-Amyloid Protein (1-28) (Homo sapiens, UniProt P05067); test: Competitive inhibition of 125I-labeled HSPG binding to BAP (1-28) affinity column; details: absence of unlabeled competing ligand, n=5
T3 construct: residues 1-28 of BAP or residues 597-624 of BAPP; purchased Bachem Inc., Torrance, Calif; host or cells: synthetic peptide
Procedure: ^125I-labeled HSPGs in the presence of increasing concentrations of unlabeled GAGs, or large low density HSPG (from EHS sarcoma) were applied to an Affi-gel 10 column containing BAP (residues 1-28). After nonbound PGs were eluted from the column using TBS+0.1% TX-100, bound PGs were eluted with a step gradient using 15 ml of 1M MgCl2 in TBS+0.1% TX-100, followed by 15 ml of 4M MgCl2 in TBS+0.1% TX-100, and then 10 ml of 8M urea buffer containing 3M NaCl. […] Bars indicate standard error of the mean.
In order to test the specificity of HSPG binding to BAP (1-28), competitive inhibition experiments were also performed. 125-I labeled HSPGs (100,000-200,000 dpm) were mixed with (a) HSPG from EHS sarcoma (Mr approximately 700,000) (Kato et al., 1988) (gift of Dr. Koji Kimata, Aichi, Japan), (b) heparin from porcine intestinal mucosa (Mr˜11,000; Sigma, St. Louis, Mo.), (c) chondroitin-6-sulfate from shark cartilage (Mr˜59,000; Sigma, St. Louis, Mo.), or (d) […] dextran sulfate (Mr˜110,000; Pharmacia Fine Chemicals, Uppsala, Sweden). The samples were incubated on a rotator for 2 hours at room temperature and then applied to the BAP (1-28) column. Columns were run and eluted with step gradients (1 to 4 M MgCl2) as described above.
Purified iodinated HSPGs were combined with various concentrations of unlabeled competing ligands and applied to a BAP (1-28) affinity column (FIG. 10).

In the case of “high Mr HSPG: ˜600-800 kDa heparan sulfate proteoglycan isolated from culture media of bovine aortic endothelial cells”, the pKd ([1]; 125I-BAP (1-28), Scatchard analysis, HSPG on nitrocellulose coated wells, read-out: Kd of the high affinity binding site) was 10.08, the pKd ([1]; 125I-BAP (1-28), Scatchard analysis, HSPG on nitrocellulose coated wells, read-out: Kd of the low affinity binding site) was 7.38 and the “moles of BAP bound by 1 mole of HSPG” value ([1]; assuming molecular weights of 700,000 and 2,800) was about 1.8 mol. For the same substance, the pKd ([1]; binding to BAP/β/A4 (1-28), read-out: Kd of the low affinity binding site (unit inferred)) was 7.38, the “decrease in HSPG binding to mutated β/A4 (1-28)” value [2] was 50-60% and the “applied 125I-HSPG bound to the BAP column” value [3] was 21.6±4.4%.
